This assay has as its target scMad1^E–scMad2 complex (S. cerevisiae) (UniProt P40957). The assay is described as follows: ITC; 20°C; 25 mM HEPES pH 7.5, 150 mM NaCl; scMad1 proteins (20 µM) in the cell; scBub1 phospho-peptides or phosphorylated scBub1_(449–530) (300 µM) injected.

One may read the Kd as the equilibrium constant for the complex coming apart. A lower Kd goes with higher affinity.

Sequence of scMad1^E–scMad2 complex (S. cerevisiae) (P40957 whole entry, chain 1 of 2): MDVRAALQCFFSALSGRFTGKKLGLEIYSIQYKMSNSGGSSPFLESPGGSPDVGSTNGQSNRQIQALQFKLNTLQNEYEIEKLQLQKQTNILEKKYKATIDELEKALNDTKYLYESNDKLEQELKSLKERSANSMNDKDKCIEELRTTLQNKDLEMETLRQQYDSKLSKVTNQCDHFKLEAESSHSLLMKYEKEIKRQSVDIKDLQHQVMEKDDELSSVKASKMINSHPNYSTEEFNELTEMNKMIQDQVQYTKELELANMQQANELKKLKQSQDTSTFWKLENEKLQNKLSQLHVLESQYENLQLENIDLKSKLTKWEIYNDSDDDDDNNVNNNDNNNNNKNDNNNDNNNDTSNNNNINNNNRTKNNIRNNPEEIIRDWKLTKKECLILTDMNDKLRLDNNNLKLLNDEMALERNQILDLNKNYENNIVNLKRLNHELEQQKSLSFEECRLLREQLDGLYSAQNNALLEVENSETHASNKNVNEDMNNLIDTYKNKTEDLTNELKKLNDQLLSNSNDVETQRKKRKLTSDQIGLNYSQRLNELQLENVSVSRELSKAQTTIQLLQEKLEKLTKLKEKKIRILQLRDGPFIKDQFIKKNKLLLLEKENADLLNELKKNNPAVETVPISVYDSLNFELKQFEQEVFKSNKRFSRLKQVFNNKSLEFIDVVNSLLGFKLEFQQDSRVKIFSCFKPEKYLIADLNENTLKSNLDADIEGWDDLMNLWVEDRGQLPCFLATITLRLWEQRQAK
Sequence of scMad1^E–scMad2 complex (S. cerevisiae) (P40958 whole entry, chain 2 of 2, further chain): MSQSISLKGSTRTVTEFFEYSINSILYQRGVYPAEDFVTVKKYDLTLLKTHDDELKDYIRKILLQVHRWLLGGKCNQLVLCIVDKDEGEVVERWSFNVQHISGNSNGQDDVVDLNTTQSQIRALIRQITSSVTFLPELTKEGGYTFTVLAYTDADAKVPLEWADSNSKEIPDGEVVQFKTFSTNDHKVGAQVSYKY

B1: Mps1-phosphorylated scBub1_(449–530) fragment (domain or fragment)
chain: SRSPTVTAFSKDAINEVFSMFNQHYSTPGALLDGDDTTTSKFNVFENFTQEFTAKNIEDLTEVKDPKQETVSQQTTSTNETN
modifications: phosphothreonine at 453, phosphothreonine at 455, phosphoserine at 458 (mass spectrometry; co-expressed with scMps1)
For B1, the Kd turned out to be 2200 nM.

Values taken from PMC5268738, “A sequential multi-target Mps1 phosphorylation cascade promotes spindle checkpoint signaling” (eLife, 2017).
